The numbers were not newly measured in PMC3819593, which cites them from elsewhere.

pKd: −log10 of the molar value.

As usually defined, the pKd is the Kd on a negative log10 scale, so that one unit is a factor of ten.

One series deals with AICL (Homo sapiens) (UniProt Q92478).
For a further series, the target named is LLT1 (Homo sapiens) (UniProt Q9UHP7).
UniProt Q9UHP7, sequence (Q9UHP7 whole entry): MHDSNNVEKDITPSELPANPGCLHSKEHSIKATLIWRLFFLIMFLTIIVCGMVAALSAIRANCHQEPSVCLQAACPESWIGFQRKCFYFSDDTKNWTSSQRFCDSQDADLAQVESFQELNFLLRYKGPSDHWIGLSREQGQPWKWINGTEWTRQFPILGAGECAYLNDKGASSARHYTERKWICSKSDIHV

UniProt Q92478, sequence (Q92478 whole entry): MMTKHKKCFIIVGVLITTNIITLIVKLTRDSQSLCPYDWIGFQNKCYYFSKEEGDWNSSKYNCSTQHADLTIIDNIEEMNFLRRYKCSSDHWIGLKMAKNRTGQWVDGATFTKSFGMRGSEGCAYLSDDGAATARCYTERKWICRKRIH

For the substance NKp80 (from UniProt Q9NZS2), the pKd in the series with AICL (Homo sapiens) is 5.40. Regarding NKRP1A (from UniProt Q12918), the negative-log Kd (pKd) in the series with LLT1 (Homo sapiens) is 4.32.
